Source: the nanobody polyreactivity screen of Harvey et al. (2022)

Experiment: yeast display, Sf9 membrane polyspecificity reagent, FACS + sequencing; frameworks hold sequencing errors
Method in brief: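 Using colony PCR, genes from sorted yeast display clones were amplified, then sequenced on MiSeq at 2 × 250 and filtered by CDR length. The clones had been stained with 10% biotinylated, detergent-solubilized Sf9 membrane reagent for 1 hour at 4 °C and sorted by FACS into low and high (top ~1%) gates on anti-HA and streptavidin fluorescence. Polyreactivity labels come from the gate of origin.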

Sequence	polyreactivity (PSR sort gate)
QVQLVESGGGLVQAGGSLRLSCAASGSIFSVNTMGGYRQAPGKERELVADISSGDSTYYADSVKGRFTISRDNAKNTVYLQMNSLKPEDTAVYFCNADVYSWVSGKEGDYWGQGTQVTVSS	low polyreactivity
QVQLVESGGGLVQAGGSLRLSCAASGSIFSVYAMGWYRQAPGKERELVAAITSGTSTYADSVKGRFTISRDNAKNTVYLQMNSLKPEDTAVYYCAAEFLWIVDYWGQGTQVTVSS	low polyreactivity
QVQLVESGGGLVQAGGSLRLSCAASGSIFSVYSMGWYRQAPGKERELVADITRSGARTYYADSVKGRFTISRDNAKNTVYFPMNSLKPEDTAVYYCAADDPCYDQVEYWGQGTQVTVSS	high polyreactivity
QVQLVESGGGLVQAGGSLRLSCAASGSIFSVYVMGWYRQAPGKERELVAAISWSDSDTYYADSVKGRFTISRDNAKNTVYLQMNSLKPEDTAVYYCNVVNPVLYSSYEFDYWGQGTQVTVSS	high polyreactivity
QVQLVESGGGLVQAGGSLRLSCAASGSIFSWSAMGWYRQAPGKVRELVAGITWTGGSTYYADSVKGRFTISRDNAKNTVYLQRNSLKPEDTAVYYCNARRATYRKYTPVPFDRYDYWGQGTQVTVSS	high polyreactivity
QVQLVESGGGLVQAGGSLRLSCAASGSIFSWYAMGWYRQAHGKEREFVAGISSSGSTKYADSVKGRFTISRDNAKNTVYLQMNSLKPEDTAVYYCAVANKSQRYFYYYFHYYYWGQGTQVTVSS	low polyreactivity
QVQLVESGGGLVQAGGSLRLSCAASGSIFSWYAMGWYRQAPGKERELVAAIRRGGSTYYADSVKGRFTISRDNAKNTVYLQMNSLKPEDTAVYYCAARVYTAASRGRGDYWGQGTQVTVSS	low polyreactivity
QVQLVESGGGLVQAGGSLRLSCAASGSIFSWYAMGWYRQAPGKERELVAAIRWSGGRTYYADSVKGRFTISRDNAKNTVYLQMNSLKPEDTAVYYCAADFYPDEYYYWGQGTQVTVSS	high polyreactivity
QVQLVESGGGLVQAGGSLRLSCAASGSIFSYNALGWYRQAPGKEREFVAAISARGGSTYYADSVKGRFTISRDNAKNTVYLLMNSLKPEDTAVYYCAASWGLGTYSDSTYWGGYYYWGQGTQVTVSS	low polyreactivity
QVQLVESGGGLVQAGGSLRLSCAASGSIFSYNAMGWYREAPGKERELVAAISSRGRTYYADSVKGRFTISRDNAKNTVNLQMNSLKPEDTAVYYCAARGYWDLRTFYYWGQGTQVTVSS	high polyreactivity
QVQLVESGGGLVQAGGSLRLSCAASGSIFSYNAMGWYRQAPGKEMELVAAISSGGSTYYADSVKGSFTISRDNAKNTVYLQMNSLKPEDTAVYYCNVYYLIWPYGHQVKRRDYWGQGTQVTVSS	low polyreactivity
QVQLVESGGGLVQAGGSLRLSCAASGSIFSYNAMGWYRQAPGKERELVAAITWSGGSTYYADSVKGRFTISRDNAKNTVYLQMNSLKPEDTAVYDCAAKGGYSTVRPTYTKFNYWGLGTQVTVSS	high polyreactivity
QVQLVESGGGLVQAGGSLRLSCAASGSIFSYYAMGWSRQAPGKERELVAAISSGGSRTYYADSVKGRFTISRDNAKNTVYLQMNSLKPEDTAVYYCNAPAPARYYRGHDYWGQGTQVTVSS	high polyreactivity
QVQLVESGGGLVQAGGSLRLSCAASGSIFSYYAMGWYRQAPGKERELFAVINSGGRTNYADSVKGRFTISRDNAKNTVYLQMNSLKPEDTAVYYCAAQGYFVDRAGRYYRGDYWGQGTQVTVSS	high polyreactivity
QVQLVESGGGLVQAGGSLRLSCAASGSIFSYYAMGWYRQAPGKERELVAAISQSGGTTYYADSVKGRFTISRDNAKNTDYLQMKSLKPEDTAVYYCAARAPSSFDTQYYYWGQGTQVTVSS	low polyreactivity
QVQLVESGGGLVQAGGSLRLSCAASGSIFSYYAMGWYRQAPGKERELVAAISQSGGTTYYADSVKGRFTISRDNAKNTVYLQMNSLKPEDTAVYYCAARAPSSFDTQYYYWGQGTQVTVSS	low polyreactivity
QVQLVESGGGLVQAGGSLRLSCAASGSIFSYYAMGWYRQAPGKERELVAAISRGGYTYYADSVKGRFTISRDNAKNTVYLQMNSLKPEDTAVYYCAAAPYYVTLVTRRDYWGQGTQVTVSS	high polyreactivity
QVQLVESGGGLVQAGGSLRLSCAASGSIFSYYAMGWYRQAPGKERELVAAISVSGGRTYYADSVKGRFTISRDNAKNTVYLQMNSLKPEDTAVYYCATRIRSYYYWGQGTQVTVSS	high polyreactivity
QVQLVESGGGLVQAGGSLRLSCAASGSIFSYYAMGWYRQAPGKERELVAAISWSGGRTYYADSVKGRFTISRDNAKNTVYLQMNSLKPEDTAVYYCNVDVYVVPHYDYWGQGTQVTVSS	high polyreactivity
QVQLVESGGGLVQAGGSLRLSCAASGSIFSYYAMGWYRQAPGKERELVAANDWNVDSTYYADSVKGRFTISRDNAKNTVYLQLNSLNPEDTAVYYCNAEVYYFYTRYTWYLYDYWRQGTQVTVSS	low polyreactivity
QVQLVESGGGLVQAGGSLRLSCAASGSIFSYYAMGWYRQAPGKERELVAGITWSGGRTYYADSVKGRFTISRDNAKNTVYLQMNSLKPEDTAVYYCAAVQLFSRRSRYDYWGQGTQVTVSS	high polyreactivity

Sequence	polyreactivity (PSR sort gate)
QVQLVESGGGLVQAGGSLRLSCAASGSIFSYYAMGWYRQATGKERELVAAITRGGTTYYAVCVKGRFTISRDNAKNTVYLQMNSLKPDDTAVYYCAVYYYSGTAGYRYGYWGQGTQVTVSS	high polyreactivity
QVQLVESGGGLVQAGGSLRLSCAASGSIFSYYPMGWYRPAPGKERELVAAISWSGGSTYYADSVKGRFTISRDNAKNTVYLQMNSLKPEDTAVYYCAAQSWSGDSSFWRYDYWGQGTQVTVSS	low polyreactivity
QVQLVESGGGLVQAGGSLRLSCAASGSIFTANAMGWYRQAPGKERELVAAISRSGGRTYYADSLKGRFTISRDNEKNTVYLQWKSLKPEDTAVYYCNVGRFNTSGYDYWGLGTQVTVSS	high polyreactivity
QVQLVESGGGLVQAGGSLRLSCAASGSIFTANAMGWYRQAPGKERELVAAISRSGGRTYYADSVKGRFTISRDNAKNTVYLQMNSLKPEDTAVYYCNVGRFNTSGYDYWGQGTQVTVSS	high polyreactivity
QVQLVESGGGLVQAGGSLRLSCAASGSIFTAYAMGWYRQAPGKERELVAAISYGGGSTYYADSVKGRFTISRDNAKNTVYLQMNSLKPEDTAVYYCAAASSGEYGYWGQGTLVTVSS	low polyreactivity
QVQLVESGGGLVQAGGSLRLSCAASGSIFTAYTMGWYRQAPGKERELVAVISDSSGRTYYADSVKGRFTISRDNAKNTVYLQMNSLKPEVTAVYYCAAEYSDIYEYWGQGTQVTVSS	low polyreactivity
QVQLVESGGGLVQAGGSLRLSCAASGSIFTDYTMGWYRQAPGKERELVAAISWIGDSTDYADSVKGRFTISRDNAKNTVYLQMNSLKPEDTAVYYCAKSRAGRYNDYDYWGQGTQVTVSS	low polyreactivity
QVQLVESGGGLVQAGGSLRLSCAASGSIFTEYAMGWYIQAPGKERELVAAISWSGATTYYADSVKGRFTISRDNAKNTVYLQMNSLKPEDTAVYYCAARWANRSYEYWGQGTQVTVSS	low polyreactivity
QVQLVESGGGLVQAGGSLRLSCAASGSIFTEYAMGWYRKAPGKERELVAVITLRGGSTYYADSVKGRFTISRDNAMNTVYLQMNSLKPEDTAVYYCAAVTLVSFWFDYWGQGTQVTVSS	low polyreactivity
QVQLVESGGGLVQAGGSLRLSCAASGSIFTFNAMGWYRQAPGKERELVAAINWSGTRTYYADSVKGRFTISRDNAKNTVYLQMNSLKPEDTAVYYCNTRPSKRYGYDYWGQGTQVTVSS	high polyreactivity
QVQLVESGGGLVQAGGSLRLSCAASGSIFTFYTMGWYRQAPGKERELVAAISQTGGRTYYADSVKGRFTISRDNAKNTVYLQMNSLKPEDTAVYYCAARSKRLAHDYWGQGTQVTVSS	high polyreactivity
QVQLVESGGGLVQAGGSLRLSCAASGSIFTGNAMGWYRQAPGKERELVAAITNGGITNYADSVKGRFTISRDNAKNTVYLQMNSLKPEDTAVYYCAADYVDFYSFRRFDYWGQGTQVTVSS	low polyreactivity
QVQLVESGGGLVQAGGSLRLSCAASGSIFTGYAMGWYRPAPGKERELVAANRYTTTSTYYADSVKGRFTISRDNAKNTVYLQMHSLKPEDTAVYYCKGWRGTYSGDYWGQGTQVTVSS	high polyreactivity
QVQLVESGGGLVQAGGSLRLSCAASGSIFTGYAMGWYRQAPGKDRELVAAISWRGGGTYYADSVQGRFTISRDNAKNTVYLQMNSQKPEDTAVYDCAAVTKFGQYAPGSKGYGYWGQATQVTVSS	low polyreactivity
QVQLVESGGGLVQAGGSLRLSCAASGSIFTGYAMGWYRQAPGKDRELVAGISWGGTSTYYADSVKGRFTISRDTAKNTVYLQMNSLKPEDTAVYYCSAVRGKYGYLTTPYWFDYWGQGTQVTVSS	high polyreactivity
QVQLVESGGGLVQAGGSLRLSCAASGSIFTGYTMGWYRPAPGKEREFVAAIRATGGSTYYADSVKGRFTISRDNAKNTVYLQMNSLKPEDTAVYYCAVRSGVGSVRKRYGYWGQGTQVTVSS	high polyreactivity
QVQLVESGGGLVQAGGSLRLSCAASGSIFTHNAMGWYRQAPGKERELVAAISSGGSTNYADSVKGPFTISRDNAKNTVYLQMNSLKPEDTAVYYCAKSIDGWYWRRRRYDYWGQGTQVTVSS	low polyreactivity
QVQLVESGGGLVQAGGSLRLSCAASGSIFTHYPMGWYRQAPGKERELVAAISRRGGSTYYADSVKGRFTISRDNAKNTVYLQMNSLKPEDTAVYYCAKSPDTAKEYDYWGQGTQVTVSS	high polyreactivity
QVQLVESGGGLVQAGGSLRLSCAASGSIFTKYAMGWYRQAPGKEREFVAAITLSGGSTYYADSVKGRFTISRDNAKNTVYLQMNSLKPEDTAVYYCNAAYTYVTAWYYYWGQGTQVTVSS	high polyreactivity
QVQLVESGGGLVQAGGSLRLSCAASGSIFTLYAMGWYRQAPGKEREFVAGISFSTGRTYYADSVKGRFSISRDNAKNTVYLQMNSLKPEDTAVYYCAAYVSHYWYGVYRDGYWGQGTQVTVSS	low polyreactivity
